Source: the RNAGym collection of RNA variant scans (doi:10.1073/pnas.2313332121)
Fewer inactive variants are shown than the library holds.

B1: TPR 5TU (parent)
chain: GGAUCUUCUCGAUCUAACAAAAAAGACAAAUCUGCCACAAAGCUUGAGAGCAUCUUCGGAUGCAGAGGCGGCAGCCUUCGGUGGCGCGAUAGCGCCAACGUUCUCAACUAUGACACGCAAAACGCGUGCUCCGUUGAAUGGAGUUUAUCAUG

Variants of: B1
Test: polymerase ribozyme fitness, log enrichment relative to wild type (log ratio); higher = more active; in vitro selection for triplet polymerase activity
How it was run: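 Mutant libraries were PCR-built and transcribed for each subunit of a heterodimeric triplet polymerase ribozyme and selected for one round in triplicate at −7 °C, frozen, before gel excision of extended constructs and streptavidin-bead capture. Input and output libraries were Illumina-sequenced, keeping genotypes with ≥10 input reads and ≥1 read per output. Fitness is a logarithmic ratio of genotype to wild-type enrichment, in base 2, using inverse-variance-weighted replicate averages.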

Going from U53A C93U to C54U U82A, the “polymerase ribozyme fitness (log ratio)” value rises from -2.51 to -0.0444.

Going from U55C U82G C95U to U55A G92U G124C, the “polymerase ribozyme fitness (log ratio)” value falls from -0.677 to -0.918.

Compared with U53G A150U, U53A G65C C85G A137U G140C is lower in “polymerase ribozyme fitness (log ratio)” value: -1.34 for the first, ≤ -4.2 for the second.

Compared with C54A G58U C99A U145A, C54A G81A is higher in “polymerase ribozyme fitness (log ratio)” value: -2.04 for the first, -1.07 for the second.

C54G G86U U135A U139A and U55A G68A C76A C96G C114G G133A A138U cannot be ordered by “polymerase ribozyme fitness (log ratio)” value: ≤ -4.2 for the first, ≤ -4.2 for the second.

Going from U55A C93G to C54A G86U A97G, the “polymerase ribozyme fitness (log ratio)” value falls from -3.83 to ≤ -4.2.

First: C54A U56A G67U C85A G88A U101G G141C
Second: U55G A73U U146C
The “polymerase ribozyme fitness (log ratio)” value of the first is lower: ≤ -4.2 for the first, -1.74 for the second.

Going from C54A G83A C99U to U55A C96U, the “polymerase ribozyme fitness (log ratio)” value rises from -3.7 to -0.113.

First: U53G U61A C85U G94U A97U G152A
Second: U53A C54G C95A
The “polymerase ribozyme fitness (log ratio)” value of the first is lower: ≤ -4.2 for the first, -1.73 for the second.

U55A A64G and U55A C69A C76U U82G are within 0.2 log units of each other in “polymerase ribozyme fitness (log ratio)” value: -3.3 for the first, -3.45 for the second.

U55A A66U A98G A122U A150C and U53A C54G G67C C118U U130A cannot be ordered by “polymerase ribozyme fitness (log ratio)” value: ≤ -4.2 for the first, ≤ -4.2 for the second.

First: U55A A97G C116A
Second: U55A C69U C85A C87U
The “polymerase ribozyme fitness (log ratio)” value of the first is higher: 1.12 for the first, ≤ -4.2 for the second.

First: U55A G84A A121U
Second: U55A A106G A113U G136C
The “polymerase ribozyme fitness (log ratio)” value of the first is higher: -1.24 for the first, ≤ -4.2 for the second.

Going from U53A U55A A121U to C54A A64G C76G C93U A138C, the “polymerase ribozyme fitness (log ratio)” value falls from -2.74 to ≤ -4.2.

Going from C54A C123U to C54A C123G, the “polymerase ribozyme fitness (log ratio)” value falls from -0.754 to -1.63.

U53A C79G C108U G136A U144G and U53A G67C C85U U109G A115U cannot be ordered by “polymerase ribozyme fitness (log ratio)” value: ≤ -4.2 for the first, ≤ -4.2 for the second.

C54A U77G C85U C93G G117C G136A and U53A G83C C105G cannot be ordered by “polymerase ribozyme fitness (log ratio)” value: ≤ -4.2 for the first, ≤ -4.2 for the second.

Compared with U53C C54U, C54A C85G G124U is lower in “polymerase ribozyme fitness (log ratio)” value: -1.25 for the first, -3.78 for the second.

Compared with U53C U55C C105U, U53A C118U is higher in “polymerase ribozyme fitness (log ratio)” value: -1.88 for the first, -1.08 for the second.

First: U53A C96A C125U
Second: U55A C85G
The “polymerase ribozyme fitness (log ratio)” value of the first is higher: -1.41 for the first, -2.99 for the second.

First: U55A C85A
Second: C54G C96U U111G G133U A137G
The “polymerase ribozyme fitness (log ratio)” value of the first is higher: -2.26 for the first, ≤ -4.2 for the second.

Compared with U55A C57A C93U G126U, C54U C75U is higher in “polymerase ribozyme fitness (log ratio)” value: -0.627 for the first, -0.0882 for the second.

First: U53A G58A C76U C103G A150U
Second: C54A G92U
The “polymerase ribozyme fitness (log ratio)” value of the first is lower: ≤ -4.2 for the first, -2.39 for the second.

Compared with U53A C93A C95G, C54G C96U A142C is higher in “polymerase ribozyme fitness (log ratio)” value: ≤ -4.2 for the first, -3.34 for the second.

C54U A60G A64G C85U C99A C105U A106C and C54G G58A U78G C108A G126U cannot be ordered by “polymerase ribozyme fitness (log ratio)” value: ≤ -4.2 for the first, ≤ -4.2 for the second.

First: U55A A89U
Second: C54A C85G
The “polymerase ribozyme fitness (log ratio)” value of the first is higher: -0.224 for the first, -3 for the second.

C54A G80C C114A U127G G143C and U55A C79A cannot be ordered by “polymerase ribozyme fitness (log ratio)” value: ≤ -4.2 for the first, ≤ -4.2 for the second.

Going from U53A C69G G83A G117U U145C to U55C U144C, the “polymerase ribozyme fitness (log ratio)” value rises from -3.13 to 0.187.

Going from U55C C95A C96G G117C to U53A G133U, the “polymerase ribozyme fitness (log ratio)” value falls from -2.16 to -3.53.

Compared with C54U C85U A98G U134A, U55A G67U C69G C76A A98G is higher in “polymerase ribozyme fitness (log ratio)” value: -3.35 for the first, -2.81 for the second.

First: C54U C57U G83C A106C U135C
Second: U55A A60C C85U A89G
The “polymerase ribozyme fitness (log ratio)” value of the first is lower: ≤ -4.2 for the first, -4.15 for the second.

First: U55A C57G
Second: C54A U61C G65A G88U C95G C103G A115C A119C U135G U144G
The “polymerase ribozyme fitness (log ratio)” value of the first is higher: -0.56 for the first, ≤ -4.2 for the second.

Compared with C54U G59A A106G, U55C G59C A107C C131U U134G G136C is lower in “polymerase ribozyme fitness (log ratio)” value: 0.342 for the first, ≤ -4.2 for the second.

U55A G62C G117A C131G and C54U G84A C93G cannot be ordered by “polymerase ribozyme fitness (log ratio)” value: ≤ -4.2 for the first, ≤ -4.2 for the second.

Going from U55A A119G U148G to U53C U139G, the “polymerase ribozyme fitness (log ratio)” value rises from -3.77 to 0.0757.

First: U53A C105A
Second: C54U A73C G94U C116G C125A U134A
The “polymerase ribozyme fitness (log ratio)” value of the first is higher: -2.83 for the first, ≤ -4.2 for the second.

C54A U77A C96G U127G and U53A G84A G94A C103U C114U G126C cannot be ordered by “polymerase ribozyme fitness (log ratio)” value: ≤ -4.2 for the first, ≤ -4.2 for the second.

First: C54G C87U A122G U145C
Second: U55A G83A G126A
The “polymerase ribozyme fitness (log ratio)” value of the first is lower: -1.82 for the first, 0.425 for the second.

Compared with U53A G100A, C54A G86U C105U is higher in “polymerase ribozyme fitness (log ratio)” value: ≤ -4.2 for the first, -2.87 for the second.

U53G U55G C75U C76U G83A U135A and C54G C87G C99G cannot be ordered by “polymerase ribozyme fitness (log ratio)” value: ≤ -4.2 for the first, ≤ -4.2 for the second.

Compared with U55A G88A, C54U U56A G84U is higher in “polymerase ribozyme fitness (log ratio)” value: ≤ -4.2 for the first, -0.698 for the second.

For U55A U109G, the “polymerase ribozyme fitness (log ratio)” value was -1.03.
